Data from the supplement of paper PMC12636428.

Test system: Saccharomyces cerevisiae
Test: transcriptional activation domain activity (GFP:mCherry ratio, weighted mean of sorted bins, harmonized to initial dataset scale) (arbitrary fluorescence ratio units); higher = stronger transcriptional activation
Conditions: beta-estradiol 1 µM; induction time 4 h
In short: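 The activation activity of each tile is the read-weighted mean of bin median fluorescence, averaged across its barcodes and mapped linearly onto the scale of the initial dataset. Tiles were fused to an estradiol-inducible synthetic transcription factor, barcoded, and integrated at URA3 in yeast diploids carrying a GFP reporter. Induction used 1 uM beta-estradiol in SC for 4 hours at 30 °C, after which cells were sorted into 8 GFP:mCherry bins, and any tile with fewer than 50 reads was dropped.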

First: EDEASASTDNDEATTKTEKQPKKKAKAEKVADCEAVVKKKAPAKRQSKKEANQ
Second: KKGRRGRRRNRRGRKEGESEKGRKGGKGKGRKGEEQRRVRIKKGSRGTGEGEK
The “transcriptional activation domain activity” value of the first is higher: 41600 for the first, under 6570 for the second.

Going from “ELKDGGGGESSPIEIADRVVVEECDMEKVALDRTLGRLWRGWRKRLRSPATPV” to “MHPILSCLVSIVCPIMHILLLAVLLFLNTLSRLILAFTYTTFSLFVFSVQLTP”, the “transcriptional activation domain activity” value rises from 65100 to 71500.

First: AKAEAKTTKTAKKPTLEKKATTSKATTAKKPAAKPATKAKETKAAKEPKAKAA
Second: MLQRFWYLALLAKRRTDLFSFKLSCLELLCFLPISMVVCHIWVIMGPLFFILF
The “transcriptional activation domain activity” value of the first is lower: 40800 for the first, 50800 for the second.

First: STTLPAVDNNNLFDAVASPLADPLCDDIAGNSLPFDNSIDLDNWRNPEAQSGL
Second: VFLHHFRRAIFPLCNLVCSSWNVITFSHPWMIFAIIMFLHWSWILGLQKGMLI
The “transcriptional activation domain activity” value of the first is lower: 71400 for the first, 83600 for the second.

Compared with “SLFLSFFIFPLFLFFYFFSFFFDLFIVCMVHLFLGKDLYLFGYQKVLFCFCLC”, “EGEYKTLATDDLGNILNLNYGETNEVIMNEINDLNLPLGPLSDEKSVKVSTFS” is higher in “transcriptional activation domain activity” value: 65700 for the first, 84800 for the second.

Going from “DMKDRGLFQCNPYRYAKECCRFVGLFYTAIWLVLRGTHIGHYVISATCLAVLW” to “MSSGFSWSTCSFFFFFFFFLLLLLLLFFWFFLFGLSWRDSLVFFPFFFFLSLF”, the “transcriptional activation domain activity” value falls from 68200 to 17800.

First: EKNEKPAPVAPAEGAVAEAKEGKSQKKEKKEKKPAEEGSSSKKGGKSAPAAAE
Second: ARLRALEIIRAGHEGGYDGFFWGAWIPGLFHGKMTDIIALLLTHWGNVRNPAS
The “transcriptional activation domain activity” value of the first is lower: 33700 for the first, 65700 for the second.

Compared with “MLLDPRVIPLIFSTLFLFLHFNFLPNFPPLPLSFHPRPTLLPPFCSLLFPLLF”, “MFIFFLILLFYYYFYSTILFITYTLFSITQLSIFTLIPFLYYIIHYVTLLICS” is lower in “transcriptional activation domain activity” value: 80000 for the first, 41100 for the second.

Compared with “MLRITLRVSIFLGYFPLFGWCAGFCFFRPFFFFFFACFRARWAFFFPSIRFFY”, “TTAETTAPAAETDAAAKVEEAKPAAATTEAKPAAAAPKPAADKKVKRSSTILQ” is lower in “transcriptional activation domain activity” value: 37300 for the first, 10600 for the second.

First: PLPSPPSLPLPSPPSHSLLPLFLPFLPSLCSSLSILFPPLLLSHCPCFSFFLS
Second: SGGKTVLQGAFAGESGRISSGGPFGHGRGKEGQEQAIDNGRQRIARLAHGLRL
The “transcriptional activation domain activity” value of the first is higher: 63500 for the first, 23600 for the second.

Going from “LYFMPVRWYTYHKIGFHYFLADLCYFVNFLMVLCIWFFPNSKRLFISTFCLAF” to “EKTRRNREKREKKKNKGKGGKGGGGGGNGGGGGGSGNAATVTAAAENGAGKKE”, the “transcriptional activation domain activity” value falls from 72000 to 30900.

Going from “YREIPPEQLHGFPRIVDDINYNPVFLFDTFAAYTTLINYWMHMLILRSNTFLL” to “EHPARARVDKNRTKTSAREVHPARAAREEHPARAYADKNRTKTSARDVHPAGA”, the “transcriptional activation domain activity” value falls from 53100 to 40400.

Going from “AESQLTLRAIVSSKEAGVIIGKGGKNVADLRDETGCKAGVSKVVQGVHDRVLT” to “GMVPGYYPKMPYNPMGGDPLLDQAFYGADDFFFPPEGCDNNMLYPQTATSWNV”, the “transcriptional activation domain activity” value rises from 22300 to 138000.

First: DPDASSFSGTVLDKAGSIARLSEDEQGGERAAKRRRLNKKVGMEAIAGLVGEY
Second: EDEETARPKRKSPSAVLKSHTARVSRAVFGRDAKGASAYSCGFDSTVRTWDVE
The “transcriptional activation domain activity” value of the first is lower: 40800 for the first, 49700 for the second.

Compared with “EAEAGADGSEGGEDDGREKEEVEEEGGEEEGGEEEGREDDDTKAEAEAEELSE”, “GARRQARRPRKRESSAADGDDNDADRMDVDREEARGGREQADAGDAEDEDDEE” is higher in “transcriptional activation domain activity” value: 26600 for the first, 40000 for the second.

First: LKGDHLDAVMVPKCESAADLHFVTDVIRHLRPDRHPSSTASASSSGSRREPVR
Second: SLAVRTGAELGQDASMDDAEARNMDGNLDVDLAELSLGQRLTAVNGTEGAGRS
The “transcriptional activation domain activity” value of the first is higher: 33200 for the first, 19700 for the second.

First: AKSAQRRADEPGVMSLGELAVLWVKRARHLGQSLLRVVLVSYAVDLPANCVAL
Second: IRIADMHANFFYKNINYTLSLFIFQIWCHFNSTYLFDYTLLMLFNLLFTSLPV
The “transcriptional activation domain activity” value of the first is lower: 30100 for the first, 37100 for the second.

Going from “AGLTLPRTSDYSLFYYFLLWFTLFGLAMLFIIIHGIDYVSWPRLIPLTDIIYY” to “MFFRRFLMYFVELTGIMYCLIVFFMVSLFLLYRRNMIEEQFPNKTIILYGKRV”, the “transcriptional activation domain activity” value rises from 17600 to 58500.

First: IYCAGWVFRYFFLFPYRLSLLLAATLFFFLALPIVLYFKNDEWQRWLFRFYCQ
Second: KPKVKKDADDDAMDVDEEEKPKPKPKPRPKPKATSSPKEGEEDEPAKKKLKTS
The “transcriptional activation domain activity” value of the first is higher: 57500 for the first, 51400 for the second.

Compared with “MISTLAMSLLETPIEPRTHAEICLEFWGIRLCSPITDINLAAFWNYYFKTIAH”, “SLHKIHLVYRDVLRDKLRASVGCSRIRKILRSPPLYPTWMRCLFAFICASIIC” is higher in “transcriptional activation domain activity” value: 45600 for the first, 57600 for the second.

Going from “MLSRCFKCPYGAWGVIIFFIFFFYFFLNIPFFFVYYYLLFFVCSFFSFFFHFI” to “MQFDIGPFVFFGLGWLSAIYLLLFPFFFFFFRLFPSLEFWLDLALIFMFRVLH”, the “transcriptional activation domain activity” value rises from 38600 to 46300.

Going from “KKRRKKAKEGAERGKKKRKHTDDGAGVADGVDQRDSQRESDESSADEDGNSGK” to “ICIIPFVNGFLCEPILPLFFFCSFLILSESWFIFLHWFGSWSLVIYFGSWCLF”, the “transcriptional activation domain activity” value rises from 38300 to 79700.

Compared with “WIKWTFLFARYFPLLAGLCGRVIDSIVLYRNPIPIPLNALRIWYICQVLILHL”, “LHQRVHEQGLYDCHYSNYFIDLLRYLVLLGLFVVSFYKEYYLVSSCFLGCFWH” is lower in “transcriptional activation domain activity” value: 78200 for the first, 57400 for the second.

Going from “MRGCLVAGITLLTRFVVASCGRRNVGRMRHRPRGQPLPSSLMLLVVICREFRK” to “LLKPNSCHFLLRNDIVFYKWTYYVAVIINVALRFAWTLNLANLSLNPQLLIFI”, the “transcriptional activation domain activity” value falls from 66500 to 56100.

Going from “EKVKEEEEVKYKGKEQEEVKDKGKEQEQEQEQEQEQEQEQEAPAPPRTTTSTA” to “KRREKRKKRKQRDQGRKKTKKDGVGEPSNEGGEDDNGESGKDDDDQGKESDKD”, the “transcriptional activation domain activity” value falls from 40900 to 29600.

First: SLVAATATAVEAEPPQPVKRPRGRPKKDATVASSPKPARATKAKAKAKAAVPP
Second: MLSSKLNGRSQFICHLCHTGSLLTSVTLIFPFHHTYLHFLGWNLTLLTTVWFF
The “transcriptional activation domain activity” value of the first is lower: 24700 for the first, 60600 for the second.

Compared with “LGVLLLLLLYANVVLLIYHAPTTRKPFDLAFIHAPVRAFMLLPLTILFPYSLF”, “MDEDEDENENENENSKPPPPLPALPPHPHPHPHPHPHPHPQPQQPQSSSTTNE” is lower in “transcriptional activation domain activity” value: 57300 for the first, 40800 for the second.

First: VNLHRARLRSCLDIIHLHIALGSTKRGLERVFELRRMLVSLLALHPFFRPTST
Second: LIFCVHMTVILFVILFCYLNRGFVPMTNGKYFYADFRISNTWGFITSLTLVLN
The “transcriptional activation domain activity” value of the first is higher: 46100 for the first, 38100 for the second.

Going from “MVLLGSCTLLIGKTITPYILVHKTGILYPLLFFFFFSLSLSFFYFFIGTFPLG” to “ATVNLVINFTEMTNLMRALLILYRLKERVLSMAKRLELAELRKSKSINVNLTL”, the “transcriptional activation domain activity” value rises from 52100 to 60400.

Compared with “GAAASPPPNPDGGKPRKRKGPKEKGGEGNAAARRDAGAGAGAGAARSGSAAAA”, “LWTCLLITLILPSPLFSSLFFPSPLFSFLLCLFFTFYLSFPSLFLSCPPPFAG” is higher in “transcriptional activation domain activity” value: 27100 for the first, 51800 for the second.

Going from “EKEEDAQLRDRHRGRHSVDRDLHRRGGRVRDRSRGERSLRNQPRAAGAGAAAG” to “MSSSEDEPRPRKARSKLSPPASPDSRAQSAPAVPSPVKLVRAKPRARAKAASL”, the “transcriptional activation domain activity” value falls from 57600 to 42700.

First: WVLNVHLCLFYLAAFGDSAFNVISAIRKLSELPFSYSLYLFAWLFISWDLLFV
Second: LYEHLDEDHRLLWSYLSRLGSYVFQPEIPDLTLYLSELKTVIRCFLNQLIKIS
The “transcriptional activation domain activity” value of the first is higher: 70500 for the first, 56700 for the second.

First: SRHGREASEERARRKRRERQRDNDGGNRSRRKHTSPSSDDADRLTRKRKSRHE
Second: MDGSEANRPYHAKKPHRKSRSGCRNCKTRKVKCDESRPTCRACRLRREACAYP
The “transcriptional activation domain activity” value of the first is lower: 11000 for the first, 16600 for the second.

First: MTVLQYPFRFIVRTHFPLIWAYSSSLGVGYVFLIGSFFLFISLHPLPLFCLLC
Second: RFLICDYLLIIAGLFNIVATSLTQVVVNLGLGRHIMDPSVFPNILQYSYYLWI
The “transcriptional activation domain activity” value of the first is higher: 66100 for the first, 25000 for the second.

First: LFCFLHYNLLPLPLLLYHLLLAHHILLQLNLDPFLPLLPLLPFLPLLFLLCHL
Second: HVFPILLRLVGGYALLRKLIDSIEEAYLAYHMVASQTYFMSTSLTFCAILARM
The “transcriptional activation domain activity” value of the first is lower: 36000 for the first, 71200 for the second.

Compared with “MSFQPLFYLLGLGVLFPLLFLLLSPPLFPSMAPFFLLQILLLMLTTELFFVPL”, “APQPVEATAIDDGFQEAKRGRGRKKAKEEVVASAPAAPADAPQVAKAKVVASA” is lower in “transcriptional activation domain activity” value: 39700 for the first, 23300 for the second.

Compared with “DPPKRGRGRPKGSKNKKSTGVAAAAPAPAAGPSTGEKRKRGRPPKPKPEGEAG”, “MAIFRIYVLIAVVRLGDILTDIYVVGGVLLLLRYQVFLMFFHFFFFLFFYTGL” is lower in “transcriptional activation domain activity” value: 43800 for the first, 43700 for the second.

Compared with “MGVLLFGFWVCCCTKLLFCHYCFFFFLFLHFFFLATVLYIVNCCMLLLVLLLG”, “GGSKRDREDSRKGGKTSSRGGRLTEDGPSSSHTKKPRKGKKGEEAKEGGEKSS” is lower in “transcriptional activation domain activity” value: 67700 for the first, 25100 for the second.

Going from “GVFILCRKRIVYMDGWRVWGVLIFRLFTWLFLGWLKIARGLGLGPALMMFLWL” to “MEGRHISVIKQLYGLYWLDVWKISLQLWSEVKGMYHVLQQNLWIITLFPFFAA”, the “transcriptional activation domain activity” value rises from 46200 to 64000.

First: MLSYGSFFFLIFFVFFVISLGFLLSCSWMLYSHIWCCDGPRIFFLFVNLLFVS
Second: RKPEAAAEKAAEAPEAAGGEGTRRRASGRGRGRGRNGRGGRSARAGEEKKDET
The “transcriptional activation domain activity” value of the first is higher: 38300 for the first, 29500 for the second.

First: GASTSAFGTPSALGAKPNPFGTPATGGAFGQPAAAPAFGQPTQPAGAFGQPAQ
Second: MWGILYSLQYHQNFPFVACFLSDLFEKIIHHHFFYFSLSSFSLFLIFHFWFFF
The “transcriptional activation domain activity” value of the first is lower: 40300 for the first, 52000 for the second.

With “TEAPKEEAAPAPVEEAPKQEEAPADAPAEEAAPAAAEEAPKETAAASPPKRGI” the “transcriptional activation domain activity” value was 47800.
